Results: patent CN115960240A (CHINESE ACADEMY OF MEDICAL SCIENCES HEMATOLOGIC DISEASE …, dated 2023)

Legend:
人BCMA (B细胞成熟抗原) = molecular target: T1, 人BCMA (B细胞成熟抗原) (human, UniProt Q02223 1-184); experiment: FACS titration (400 nM to 0.025 nM) on H929 cells, mean fluorescence, fitted in GraphPad Prism 7
T1 construct: whole, on cells; Endogenous BCMA on H929 cells; also called B-cell maturation antigen; H929细胞表面BCMA蛋白
T1 sequence (looked up): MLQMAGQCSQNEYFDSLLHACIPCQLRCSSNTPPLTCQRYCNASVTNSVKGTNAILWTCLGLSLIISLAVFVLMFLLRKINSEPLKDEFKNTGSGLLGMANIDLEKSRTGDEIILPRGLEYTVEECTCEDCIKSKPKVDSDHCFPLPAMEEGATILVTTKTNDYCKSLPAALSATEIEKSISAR

人CD3 = molecular target: T2, 人CD3 (human, UniProt P07766 23-207); experiment: FACS titration (400 nM to 0.025 nM) on Jurkat cells, mean fluorescence, fitted in GraphPad Prism 7
T2 construct: whole, on cells; also called Jurkat细胞表面CD3蛋白
T2 sequence (P07766 23-207): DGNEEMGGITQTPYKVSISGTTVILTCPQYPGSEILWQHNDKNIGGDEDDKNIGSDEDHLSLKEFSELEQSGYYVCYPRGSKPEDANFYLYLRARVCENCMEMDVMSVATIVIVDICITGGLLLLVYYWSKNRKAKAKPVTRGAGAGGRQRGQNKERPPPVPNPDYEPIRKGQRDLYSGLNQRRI

B1: 四价双特异性抗体Tandab(CD3/BCMA) (bispecific antibody)
chain: DADIELTQSPAIMSASPGEKVTMTCSASSSVSYMNWYQQKSGTSPKRWIYDTSKLASGVPARFSGSGSGTSYSLTISGMEAEDAATYYCQQWSSNPFTFGCGTKLELKRGGGGSQVQLQQSGAEVVRPGTSVKVSCKASGYAFTNYLIEWVKQRPGQGPEWIGVITPGRGDTKYNAKFAGKATLTADKSSSTAYMQLSSLTFDDSAVYFCARGTTAWFPYWGQGTLVTVSAGGGGSGGGGSGGGGSDIVLTQSPASLTVSLGQRATISCRASKSVSTSGYSYMHWYQQKPRQPPKLLIYLASNLESGVPARFSGSGSGTDFTLNIHPVEEEDAATYYCQHSRDLPYTFGGGTKLEIKRAGGGGSQVQLQQSGAELARPGASVKMSCKASGYTFTRYTMHWVKQRPGQCLEWIGYINPSRGYTNYNQKFKDKATLTTDKSSSTAYMELTRLTSEDSAVYYCARYYDDHYSLDYWGQGTTVTVSSHHHHHH
notes: Tetravalent tandem diabody made from anti-BCMA mAb 69G8 and anti-CD3 mAb HIT3a, expressed in ExpiCHO-S cells and purified on a nickel column; detected with an anti-His secondary antibody, so it carries a His tag
Kd (人BCMA (B细胞成熟抗原)): 1.96 nM | Kd (人CD3): 1.96 nM
